In one experiment the target is CD20 (human) (UniProt P11836). Briefly: cell-based or functional assay.
A further experiment addresses CD74 (human) (UniProt P04233). Put plainly: cell-based or functional assay.

Chain of CD74 (human) (P04233 whole entry): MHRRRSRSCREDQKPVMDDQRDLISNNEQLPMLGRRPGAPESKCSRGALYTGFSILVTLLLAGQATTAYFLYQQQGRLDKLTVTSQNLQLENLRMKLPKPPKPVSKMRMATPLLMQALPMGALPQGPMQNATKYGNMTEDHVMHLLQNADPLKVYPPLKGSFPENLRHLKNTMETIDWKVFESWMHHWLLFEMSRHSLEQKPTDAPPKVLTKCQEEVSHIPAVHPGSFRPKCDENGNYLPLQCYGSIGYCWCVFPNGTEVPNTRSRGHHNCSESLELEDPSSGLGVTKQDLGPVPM
Chain of CD20 (human) (P11836 whole entry): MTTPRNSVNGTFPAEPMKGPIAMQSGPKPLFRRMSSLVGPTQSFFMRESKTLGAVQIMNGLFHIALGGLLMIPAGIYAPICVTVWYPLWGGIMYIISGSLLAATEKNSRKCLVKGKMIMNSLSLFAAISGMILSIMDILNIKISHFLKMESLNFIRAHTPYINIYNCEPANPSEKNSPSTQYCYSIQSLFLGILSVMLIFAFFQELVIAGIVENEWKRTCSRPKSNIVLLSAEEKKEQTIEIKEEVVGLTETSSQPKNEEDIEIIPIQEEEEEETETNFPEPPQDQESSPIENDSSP

In the experiment with CD20 (human), “74-(20)-(20) bispecific hexavalent antibody (HexAb): CH3-AD2-IgG-milatuzumab with a pair of stabilized dimers of CH1-DDD2-Fab-veltuzumab (bispecific antibody)” yielded an EC50 (nM), MTS cell proliferation assay, Daudi of 1.2 nM; an EC50 (nM), MTS cell proliferation assay, Granta-519 of 0.6 nM; an EC50 (nM), MTS cell proliferation assay, JeKo-1 of 2 nM; an EC50 (nM), MTS cell proliferation assay, Mino of 1.2 nM. In the experiment with CD20 (human), the EC50 (nM), MTS cell proliferation assay, Raji stood at 0.3 nM; the Percent inhibition (%) at 100 nM, MTS assay, Granta-519 turned out to be 65%; the Percent inhibition (%) at 100 nM, MTS assay, JeKo-1 was determined as 90%; the Percent inhibition (%) at 100 nM, MTS assay, Raji amounted to 50%. Further, in the experiment with CD20 (human), the homotypic adhesion (%), JeKo-1, 2 h, 10 nM was 90% and the homotypic adhesion (%), JeKo-1, 24 h, 10 nM is > 95%. Also, in the experiment with CD74 (human), the EC50 (nM), MTS cell proliferation assay, Daudi was determined as 1.2 nM; the EC50 (nM), MTS cell proliferation assay, Granta-519 is 0.6 nM; the EC50 (nM), MTS cell proliferation assay, JeKo-1 turned out to be 2 nM; the EC50 (nM), MTS cell proliferation assay, Mino worked out at 1.2 nM. Besides, in the experiment with CD74 (human), the EC50 (nM), MTS cell proliferation assay, Raji came out at 0.3 nM; the EC50, MTS assay, in CLL lines WAC, MEC-1, ALL lines REH-1, MN60 and MM lines CAG, RPMI8226, KMS11, KMS12-BM, KMS12-PE was > 100 nM; the Percent inhibition (%) at 100 nM, MTS assay, Granta-519 is 65%; the Percent inhibition (%) at 100 nM, MTS assay, JeKo-1 is 90%. Also, in the experiment with CD74 (human), the Percent inhibition (%) at 100 nM, MTS assay, Mino was determined as 100%; the Percent inhibition (%) at 100 nM, MTS assay, Raji amounted to 50%; the homotypic adhesion (%), JeKo-1, 2 h, 10 nM turned out to be 90%; the homotypic adhesion (%), JeKo-1, 24 h, 10 nM was > 95%.

With “20-(74)-(74) bispecific hexavalent antibody (HexAb): CH3-AD2-IgG-veltuzumab with a pair of stabilized dimers of CH1-DDD2-Fab-milatuzumab (bispecific antibody)”, in the experiment with CD20 (human), the EC50 (nM), MTS cell proliferation assay, Daudi was determined as 5.3 nM; the EC50 (nM), MTS cell proliferation assay, Granta-519 came to 2 nM; the EC50 (nM), MTS cell proliferation assay, JeKo-1 stood at 3 nM; the EC50 (nM), MTS cell proliferation assay, Mino worked out at 13.7 nM. In the experiment with CD20 (human), this substance displayed an EC50 (nM), MTS cell proliferation assay, Raji of 0.3 nM; a Percent inhibition (%) at 100 nM, MTS assay, Granta-519 of 55%; a Percent inhibition (%) at 100 nM, MTS assay, JeKo-1 of 70%; a Percent inhibition (%) at 100 nM, MTS assay, Mino of 80%. In the experiment with CD20 (human), the Percent inhibition (%) at 100 nM, MTS assay, Raji stood at 50%; the homotypic adhesion (%), JeKo-1, 2 h, 10 nM was found to be 90%; the homotypic adhesion (%), JeKo-1, 24 h, 10 nM was > 95%. In the experiment with CD74 (human), this substance yielded an EC50 (nM), MTS cell proliferation assay, Daudi of 5.3 nM; an EC50 (nM), MTS cell proliferation assay, Granta-519 of 2 nM; an EC50 (nM), MTS cell proliferation assay, JeKo-1 of 3 nM; an EC50 (nM), MTS cell proliferation assay, Mino of 13.7 nM. Also, in the experiment with CD74 (human), the EC50 (nM), MTS cell proliferation assay, Raji worked out at 0.3 nM; the EC50, MTS assay, in CLL lines WAC, MEC-1, ALL lines REH-1, MN60 and MM lines CAG, RPMI8226, KMS11, KMS12-BM, KMS12-PE was > 100 nM; the Percent inhibition (%) at 100 nM, MTS assay, Granta-519 amounted to 55%; the Percent inhibition (%) at 100 nM, MTS assay, JeKo-1 was determined as 70%. Further, in the experiment with CD74 (human), the Percent inhibition (%) at 100 nM, MTS assay, Mino was 80%; the Percent inhibition (%) at 100 nM, MTS assay, Raji is 50%; the homotypic adhesion (%), JeKo-1, 2 h, 10 nM worked out at 90%; the homotypic adhesion (%), JeKo-1, 24 h, 10 nM was > 95%.

The record behind these values is US20160120976A1.
